From patent publication US20140286972A1

How the values were obtained:
[1] = biological target: IgE antibodies of a mixture of sera of patients allergic to P. judaica (human); experiment: ELISA inhibition, extract on solid phase, pooled sera preincubated with inhibitor
[2] = biological target: IgE antibodies of a mixture of sera of patients allergic to P. judaica (human); experiment: ELISA inhibition, extract on solid phase, pooled sera; reference nPar j 1-Par j 2
[3] = biological target: IgE antibodies of a mixture of sera of patients allergic to P. judaica (human); experiment: ELISA inhibition, extract on solid phase, pooled sera
[4] = biological target: IgE antibodies of a mixture of sera of patients allergic to P. judaica (human); experiment: ELISA inhibition, extract on solid phase, pooled sera; reference Q1

Row | degree of inhibition of IgE binding to P. judaica extract [1] [%] | fold more protein needed than nPar j 1-Par j 2 [2] [times] | reduction of allergenicity (IgE-binding) against nPar j 1-Par j 2 [3] [%] | fold less allergenic than the chimeric protein Q1 [4] [times] | maximum degree of inhibition of IgE binding to P. judaica extract [1] [%] | fold higher protein concentration than nPar j 1-Par j 2 for the same degree of inhibition [2] [times] | Binder
1 | 50 | 500 | – | – | – | – | chimeric protein Q1 (protein) MRGSHHHHHHGILQETCGTMVRALMPCLPFVQGKEKEPSKGCCSGAKRLDGETKTGPQRVHACECIQTAMKTYSDIDGKLVSEVPKHCGIVDSKLPPIDVNMDCKTLGVVPRQPQLPVSLRHGPVTGPSDPAHKARLERPQIRVPPPAPEKAEFEEACGKVVQDIMPCLHFVKGEEKEPSKECCSGTKKLSEEVKTTEQKREACKCIVRATKGISGIKNELVAEVPKKCDIKTTLPPITADFDCSKIQSTIFRGYY
2 | – | – | 100 | 20 | 60 | 10000 | chimeric protein Q2 (protein) MRGSHHHHHHGILQETCGTMVRALMPCLPFVQGKEKEPSKGLQIQTAMKTYSDIDGKLVSEVPKHCGIVDSKLPPIDVNMDCKTLGVVPRQPQLPVSLRHGPVTGPSDPAHKARLERPQIRVPPPAPEKAEFEEACGKVVQDIMPCLHFVKGEEKEPSKEDIIVRATKGISGIKNELVAEVPKKCDIKTTLPPITADFDCSKIQSTIFRGYY
3 | – | – | 100 | – | 60 | 10000 | chimeric protein Q3 (protein) MRGSHHHHHHGILPETCGTMVRALMPCLPFVQGKEKEPSKGLQIQTAMKTYSDIDGKLVSEVRSSKLPPIDVNMDCKTLGVVPRQPQLPVSLRHGPVTGPSDPAHKARLERPQIRVPPPAPEKAEFEEACGKVVQDIMPCLHFVKGEEKEPSKEDIIVRATKGISGIKNELVAEVPGTLPPITADFDCSKIQSTIFRGYY
